Drawing on patent publication US10253076B2, “Peptides and combination of peptides for use in immunotherapy against ovarian cancer and other cancers” (immatics biotechnologies GmbH, priority 2015, dated 2019), this text covers Peptide exchange for 68 substances.

For the test, the target named is HLA-A*02:01 (Homo sapiens, UniProt P04439, D140Y/D185E/D98H/E176V/E277Q/G131W/G231S/I119V/I121R/I166T/I218V/L300P/L318F/N151K/N90K/P208A/P217A/Q86G/Q94H/R138H/R169H/T345S). Kind of test: MHC binding assay (UV-ligand exchange, beta2m ELISA, peptide exchange yield). Conditions: binding of HLA-class I restricted peptides to HLA-A*02:01, ranged by peptide exchange yield (UV-ligand exchange, β2m ELISA). An outline of the steps:
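Readout is a β2m ELISA: stabilized complexes captured on streptavidin, detected with HRP-conjugated anti-β2m and TMB at 450 nm, reporting peptide exchange yield. Complexes come from UV-light cleavage of a conditional ligand in HLA-A*02:01 and replacement by the candidate peptide, samples diluted 100-fold.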

On to “147 (SLLEAVSFL; listed as Homo sapiens) [compound 147]”, for which the Peptide exchange entry is given as “″+++″ (≥50% = +++)”. Regarding “77 (ILVEADGAWVV; listed as Homo sapiens) [compound 77]”, the Peptide exchange result was “″++++″ (≥75% = ++++)”.

As to “612 (YLYNEGLSV; listed as Homo sapiens) [compound 612]”, the Peptide exchange result was “″+++″ (≥50% = +++)”. As for “544 (LLWDVPAPSL; listed as Homo sapiens) [compound 544]”, the entry is “″+++″ (≥50% = +++)”; as for “146 (SLATAGDGLIEL; listed as Homo sapiens) [compound 146]”, “″++″ (≥20% = ++)”; as for “454 (KLPPPPPQA; listed as Homo sapiens) [compound 454]”, “″+++″ (≥50% = +++)”. With “101 (ILVGGGALATV; listed as Homo sapiens) [compound 101]”, the Peptide exchange result was “″+++″ (≥50% = +++)”. Regarding “309 (GLFDGVPTTA; listed as Homo sapiens) [compound 309]”, the Peptide exchange result is recorded as “″+++″ (≥50% = +++)”. Turning to “393 (GLLDTQTSQVLTA; listed as Homo sapiens) [compound 393]”, the Peptide exchange entry is listed as “″++″ (≥20% = ++)”. The result for “185 (FLIDDKGYTL; listed as Homo sapiens) [compound 185]” reads “″++″ (≥20% = ++)”; that for “324 (FLYDEIEAEV; listed as Homo sapiens) [compound 324]”, “″+++″ (≥50% = +++)”; that for “494 (ALQPEPIKV; listed as Homo sapiens) [compound 494]”, “″++″ (≥20% = ++)”. On to “451 (LLLLDTVTMQV; listed as Homo sapiens) [compound 451]”, for which the Peptide exchange result is reported as “″++″ (≥20% = ++)”.

Take “334 (TLTKVLVAL; listed as Homo sapiens) [compound 334]”: the Peptide exchange entry was “″+++″ (≥50% = +++)”.

Take “95 (SVIPQIQKV; listed as Homo sapiens) [compound 95]”: the Peptide exchange entry was “″+++″ (≥50% = +++)”.

Turning to “379 (IMEGTLTRV; listed as Homo sapiens) [compound 379]”, the Peptide exchange entry was “″++″ (≥20% = ++)”. On to “400 (SLLTEQDLWTV; listed as Homo sapiens) [compound 400]”, for which the Peptide exchange entry is on record as “″++″ (≥20% = ++)”. With “80 (FLYDNLVESL; listed as Homo sapiens) [compound 80]”, the Peptide exchange result is “″++″ (≥20% = ++)”.

On to “607 (RLYSGISGLEL; listed as Homo sapiens) [compound 607]”, for which the Peptide exchange result is reported as “″+++″ (≥50% = +++)”. For the substance “559 (VTVPPGPSL; listed as Homo sapiens) [compound 559]”, the Peptide exchange result is recorded as “″++″ (≥20% = ++)”. “29 (KMLGIPISNILMV; listed as Homo sapiens) [compound 29]”: the Peptide exchange result is reported as “″+++″ (≥50% = +++)”. Regarding “115 (AIAGAGILYGV; listed as Homo sapiens) [compound 115]”, the Peptide exchange result was “″++″ (≥20% = ++)”. With “398 (KLLEEDGTIITL; listed as Homo sapiens) [compound 398]”, the Peptide exchange entry is reported as “″++″ (≥20% = ++)”.

Turning to “310 (FLVDTPLARA; listed as Homo sapiens) [compound 310]”, the Peptide exchange entry is “″++++″ (≥75% = ++++)”. In the case of “471 (YLYNNMIAKI; listed as Homo sapiens) [compound 471]”, the Peptide exchange entry is “″+++″ (≥50% = +++)”.

For “437 (SMAPGLVIQAV; listed as Homo sapiens) [compound 437]”, the Peptide exchange entry is recorded as “″+++″ (≥50% = +++)”. For the substance “124 (ALYETELADA; listed as Homo sapiens) [compound 124]”, the Peptide exchange result is listed as “″++″ (≥20% = ++)”. Consider “211 (LLWPGAALL; listed as Homo sapiens) [compound 211]”, for which the Peptide exchange entry is reported as “″++″ (≥20% = ++)”.

As for “585 (ALWDLAADKQTL; listed as Homo sapiens) [compound 585]”, the Peptide exchange entry is reported as “″++++″ (≥75% = ++++)”. In the case of “242 (AIAYILQGV; listed as Homo sapiens) [compound 242]”, the Peptide exchange result is on record as “″++″ (≥20% = ++)”. For the substance “307 (ALPVSLPQI; listed as Homo sapiens) [compound 307]”, the Peptide exchange entry is recorded as “″+++″ (≥50% = +++)”. As to “68 (SLMELPRGLFL; listed as Homo sapiens) [compound 68]”, the Peptide exchange result was “″++++″ (≥75% = ++++)”.

“458 (SLIDKLYNI; listed as Homo sapiens) [compound 458]”: the Peptide exchange entry is reported as “″++″ (≥20% = ++)”.

On to “362 (TLYGLSVLL; listed as Homo sapiens) [compound 362]”, for which the Peptide exchange result is given as “″+++″ (≥50% = +++)”.

For “481 (GLIEDYEALL; listed as Homo sapiens) [compound 481]”, the Peptide exchange entry was “″+++″ (≥50% = +++)”.

For “321 (GLFEDVTQPGILL; listed as Homo sapiens) [compound 321]”, the Peptide exchange result is “″++++″ (≥75% = ++++)”. With “573 (ILVANAIVGV; listed as Homo sapiens) [compound 573]”, the Peptide exchange entry is “″+++″ (≥50% = +++)”. As for “453 (KLLEATSAV; listed as Homo sapiens) [compound 453]”, the Peptide exchange result is on record as “″++″ (≥20% = ++)”. Consider “40 (TLLVKVFSV; listed as Homo sapiens) [compound 40]”, for which the Peptide exchange entry is on record as “″+++″ (≥50% = +++)”. For the substance “618 (VLFDSESIGIYV; listed as Homo sapiens) [compound 618]”, the Peptide exchange result was “″+++″ (≥50% = +++)”.

Take “159 (GLVGNPLPSV; listed as Homo sapiens) [compound 159]”: the Peptide exchange result is “″++++″ (≥75% = ++++)”.

As to “34 (ILVEADSLWVV; listed as Homo sapiens) [compound 34]”, the Peptide exchange result was “″+++″ (≥50% = +++)”. As for “528 (SVAEGRALMSV; listed as Homo sapiens) [compound 528]”, the entry is “″+++″ (≥50% = +++)”; as for “432 (TLIEESAKV; listed as Homo sapiens) [compound 432]”, “″++″ (≥20% = ++)”; as for “168 (KILDADIQL; listed as Homo sapiens) [compound 168]”, “″++++″ (≥75% = ++++)”. Turning to “566 (VIADGGIQNV; listed as Homo sapiens) [compound 566]”, the Peptide exchange entry is recorded as “″++″ (≥20% = ++)”.

In the case of “121 (GVVDPRAISVL; listed as Homo sapiens) [compound 121]”, the Peptide exchange entry is “″++″ (≥20% = ++)”. As to “54 (SLLEQGKEPWMV; listed as Homo sapiens) [compound 54]”, the Peptide exchange entry is recorded as “″+++″ (≥50% = +++)”. Consider “349 (SLTEYLQNV; listed as Homo sapiens) [compound 349]”, for which the Peptide exchange result is “″++++″ (≥75% = ++++)”. On to “174 (ALAQYLITA; listed as Homo sapiens) [compound 174]”, for which the Peptide exchange entry is reported as “″+++″ (≥50% = +++)”.

For the substance “475 (LLLNEEALAQI; listed as Homo sapiens) [compound 475]”, the Peptide exchange entry is “″+++″ (≥50% = +++)”. As for “408 (VLDDSIYLV; listed as Homo sapiens) [compound 408]”, the entry is “″++″ (≥20% = ++)”. For the substance “539 (ALFDAQAQV; listed as Homo sapiens) [compound 539]”, the Peptide exchange result is “″+++″ (≥50% = +++)”. For the substance “163 (ALDEMGDLLQL; listed as Homo sapiens) [compound 163]”, the Peptide exchange result is recorded as “″+++″ (≥50% = +++)”. Consider “505 (SLAPGDVVRQV; listed as Homo sapiens) [compound 505]”, for which the Peptide exchange result is on record as “″++″ (≥20% = ++)”. In the case of “257 (SIFSAFLSV; listed as Homo sapiens) [compound 257]”, the Peptide exchange entry is “″+++″ (≥50% = +++)”. Take “541 (SMLEPVPEL; listed as Homo sapiens) [compound 541]”: the Peptide exchange result is on record as “″+++″ (≥50% = +++)”.

For the substance “515 (LLQELVLFL; listed as Homo sapiens) [compound 515]”, the Peptide exchange entry is reported as “″+++″ (≥50% = +++)”. As to “306 (ALVNVQIPL; listed as Homo sapiens) [compound 306]”, the Peptide exchange entry was “″+++″ (≥50% = +++)”. Consider “201 (RLVDYLEGI; listed as Homo sapiens) [compound 201]”, for which the Peptide exchange result was “″+++″ (≥50% = +++)”. Consider “49 (YLPAVFEEV; listed as Homo sapiens) [compound 49]”, for which the Peptide exchange result was “″+++″ (≥50% = +++)”.

Take “518 (KLNAEVACV; listed as Homo sapiens) [compound 518]”: the Peptide exchange result was “″+++″ (≥50% = +++)”. With “555 (YVLEGLKSV; listed as Homo sapiens) [compound 555]”, the Peptide exchange result is reported as “″+++″ (≥50% = +++)”.

For the substance “52 (FLLAHGLGFLL; listed as Homo sapiens) [compound 52]”, the Peptide exchange entry is “″++++″ (≥75% = ++++)”. The result for “210 (LLLNAVLTV; listed as Homo sapiens) [compound 210]” reads “″++″ (≥20% = ++)”; that for “507 (KLIDDQDISISL; listed as Homo sapiens) [compound 507]”, “″+++″ (≥50% = +++)”; that for “554 (LLMPSSEDLLL; listed as Homo sapiens) [compound 554]”, “″+++″ (≥50% = +++)”. For the substance “47 (ILLSVPLLVV; listed as Homo sapiens) [compound 47]”, the Peptide exchange entry is given as “″++″ (≥20% = ++)”.
